What all share (test): MST
Data set [1] deals with T1, DDX21(574-783) (Homo sapiens, UniProt Q9NR30 574-783).
T1 sequence: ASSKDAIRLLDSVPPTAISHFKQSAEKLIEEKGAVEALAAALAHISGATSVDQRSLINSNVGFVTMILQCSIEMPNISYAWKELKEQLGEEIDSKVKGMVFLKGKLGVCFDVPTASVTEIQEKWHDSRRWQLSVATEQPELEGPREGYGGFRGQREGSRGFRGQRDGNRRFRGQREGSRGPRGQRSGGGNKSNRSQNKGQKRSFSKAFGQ

The target in data set [2] is T2, DDX21 full length (1-783) (Homo sapiens, UniProt Q9NR30 1-783).
T2 sequence: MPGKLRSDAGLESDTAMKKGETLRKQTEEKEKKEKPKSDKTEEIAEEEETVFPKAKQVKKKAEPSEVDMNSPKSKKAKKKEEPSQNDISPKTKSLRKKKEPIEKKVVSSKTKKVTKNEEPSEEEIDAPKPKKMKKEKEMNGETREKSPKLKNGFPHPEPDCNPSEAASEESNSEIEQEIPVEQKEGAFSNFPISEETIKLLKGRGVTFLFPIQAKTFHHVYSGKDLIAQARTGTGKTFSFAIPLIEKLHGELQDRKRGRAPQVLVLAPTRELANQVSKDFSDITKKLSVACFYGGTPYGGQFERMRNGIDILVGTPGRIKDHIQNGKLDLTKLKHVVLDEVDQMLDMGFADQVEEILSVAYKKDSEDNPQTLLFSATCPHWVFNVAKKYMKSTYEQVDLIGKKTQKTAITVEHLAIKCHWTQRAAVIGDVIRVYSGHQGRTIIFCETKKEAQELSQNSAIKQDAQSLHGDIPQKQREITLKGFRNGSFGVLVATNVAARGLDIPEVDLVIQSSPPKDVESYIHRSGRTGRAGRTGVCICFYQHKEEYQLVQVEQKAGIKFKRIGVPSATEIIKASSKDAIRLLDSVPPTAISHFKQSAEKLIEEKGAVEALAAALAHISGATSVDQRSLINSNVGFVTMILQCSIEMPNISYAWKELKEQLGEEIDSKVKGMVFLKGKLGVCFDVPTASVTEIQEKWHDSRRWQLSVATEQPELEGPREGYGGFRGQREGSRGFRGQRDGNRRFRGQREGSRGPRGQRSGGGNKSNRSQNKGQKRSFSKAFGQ

Data set [3] has as its target T3, DDX21 m4 (Homo sapiens, UniProt Q9NR30 1-783, P754Y;R755E;Q757I;R758Q).
T3 sequence: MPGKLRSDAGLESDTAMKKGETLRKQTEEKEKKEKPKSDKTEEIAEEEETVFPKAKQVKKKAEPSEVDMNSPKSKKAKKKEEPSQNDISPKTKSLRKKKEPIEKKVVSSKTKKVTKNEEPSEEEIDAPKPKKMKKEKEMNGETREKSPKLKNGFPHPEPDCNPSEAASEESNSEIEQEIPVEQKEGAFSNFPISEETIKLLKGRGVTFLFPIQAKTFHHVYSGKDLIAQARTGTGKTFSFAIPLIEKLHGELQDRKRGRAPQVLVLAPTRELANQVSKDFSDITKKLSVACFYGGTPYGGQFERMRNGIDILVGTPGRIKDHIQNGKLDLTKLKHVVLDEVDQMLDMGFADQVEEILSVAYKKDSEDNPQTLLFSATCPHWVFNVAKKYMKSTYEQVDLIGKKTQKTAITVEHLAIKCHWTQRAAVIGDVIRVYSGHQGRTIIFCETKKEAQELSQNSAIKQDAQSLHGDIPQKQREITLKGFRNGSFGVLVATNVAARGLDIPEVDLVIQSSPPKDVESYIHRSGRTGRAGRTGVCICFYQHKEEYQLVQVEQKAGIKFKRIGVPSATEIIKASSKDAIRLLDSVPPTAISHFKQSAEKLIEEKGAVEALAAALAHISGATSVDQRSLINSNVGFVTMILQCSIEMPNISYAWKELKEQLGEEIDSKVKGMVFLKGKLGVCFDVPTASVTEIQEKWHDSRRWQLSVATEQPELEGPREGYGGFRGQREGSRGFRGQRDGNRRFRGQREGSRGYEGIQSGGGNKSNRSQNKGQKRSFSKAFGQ

Data set [4] addresses T1, DDX21(574-783). The source holds these as a separate data set.

With GUUGCGCCGCGCGUUGCGUUUGCGCGCACG (ssRNA) [Q2-mutant], in data set [1], the binding signal is ~1000 fold less affinity than Q2 wild type. The binding result in data set [2] and in data set [3] was “no binding” each time.
As to GUUGGGGCGGGCGUUGGGUUUGGGGGGACG (structured_RNA) [Q2], in data set [2], the affinity, expressed as Kd, was 10 ± 0.7 nM.
Take AGGGUGGGCCUGGGAGGGGUGGUGGCCAU (structured_RNA) [hTR(10-43)]: the Kd (usually the free concentration of one partner at which half of the binding sites on the other are occupied at equilibrium, for simple one-to-one binding) in data set [2] is 324 ± 7 nM; in data set [4], 149 ± 10 nM. Further, the binding result in data set [3] was “no binding”.

The record behind these values is publication PMC5499804.
